Reference: article PMC10589233

Target: human SLC15A4 of the SLC15A4/ALFA_Nanobody/C5 complex (cryo-EM sample) (human) (UniProt Q8N697)
Assay: cryo-EM structure; purified SLC15A4/ALFA_Nanobody/C5 complex, 10 µM C5 in all buffers and 100 µM added to peak SEC fractions, 15 mg/ml; 2D averages showed dimeric and monomeric forms; the dimer resolved at 2.50 Å

stoichiometry N: 2
Substance: human SLC15A4 of the SLC15A4/ALFA_Nanobody/C5 complex (cryo-EM sample) (from UniProt Q8N697 1-577) (natural protein)
